The assay addresses leader of the capsid (LC) protein from Feline calicivirus (Feline calicivirus, Urbana strain). Nature of the assay: non-reducing SDS-PAGE and western blot; total protein extracts (RIPA) of FCV-infected CrFK cells, MOI of 5, 1 to 9 hpi; Laemmli buffer without β-ME; detected with anti-LC serum; also cells untreated or treated with 5 µM 16F16. On the technique in general: A western blot detects proteins with antibodies after separation by electrophoresis.

The stoichiometry N is a count of units in the complex or per binding partner.

With “leader of the capsid (LC) protein from Feline calicivirus (natural protein)”, the stoichiometry N came to 2.

For the origin of these results see paper PMC12455940.
